The record followed here is the supplement of paper PMC7877785.

This data set is described as follows: self-splicing fitness, log relative to wild type (ln ratio); higher = more splicing; Tetrahymena group I intron in knt gene, E. coli kanamycin selection, DiMSum; sequences stand for … in CUCUCU…GGAGGGAAAAGUUAUCAGGCAUGCACCUGGUAGCUAGUCUUUAAACCAAUAGAUUGCAUCGGUUUAAAAGGCAAGACCGUCAAAUUGCGGGAAAGGGGUCAACAGCCGUUCAGUACCAAGUCUCAGGGGAAACUUUGAGAUGGCCUUGCAAAGGGUAUGGUAAUAAGCUGACGGACAUGGUCCUAACCACGCAGCCAAGUCCUAAGUCAACAGAUCUUCUGUUGAUAUGGAUGCAGUUCACAGACUAAAUGUCGGUCGGGGAAGAUGUAUUCUUCUCAUAAGAUAUAGUCGGACCUCUCCUUAAUGGGAGCUAGCGGAUGAAGUGAUGCAACACUGGAGCCGCUGGGAACUAAUUUGUAUGCGAAAGUAUAUUGAUUAGUUUUGGAGUACUCGUGGUCG
The gist of the method: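 The eight P1ex-region nucleotides of an intron in the knt kanamycin-resistance gene on pET-22b(+) were all randomised and the library put into E. coli BL21(DE3). Six replicate transformations were grown overnight at 37°C or 30°C on LB agar with or without 25 μg/mL kanamycin, together with 100 μg/mL carbenicillin, 50 μM IPTG and 0.2% rhamnose. Colonies were pooled and amplicon-sequenced on an Illumina HiSeq 2500. Fitness from DiMSum is the error-weighted combination of wild-type-normalised replicate fold changes, kanamycin over none.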

± gives the uncertainty stated by the source.

GGCGAGCAAUAUUACGUUAG: the “self-splicing fitness (ln)” value is, setting by setting: (30 °C) -1.94 ± 0.15; (37 °C) -2.49 ± 0.4.
In the same order, the values of UCCGAGCAAUAUUACGAUUC are -2.88 ± 0.43 and -2.79 ± 0.48.
Taken in the same sequence, the figures for CAUAAGCAAUAUUACGAUGU were -3.66 ± 0.14 and -2.3 ± 0.14.
GCUCAGCAAUAUUACGUUGU: the “self-splicing fitness (ln)” value was -0.847 ± 0.042 (30 °C) and -0.0979 ± 0.057 (37 °C).
Take CGCAAGCAAUAUUACGUGGA: the “self-splicing fitness (ln)” value is, setting by setting: (30 °C) -3.37 ± 0.16; (37 °C) -1.6 ± 0.095.
In the same order, the values of AGCAAGCAAUAUUACGCGCC are -3.19 ± 0.34 and -2.46 ± 0.32.
Taken in the same sequence, the figures for CACUAGCAAUAUUACGGCUC were -2.9 ± 0.17 and -1.79 ± 0.3.
Taken in the same sequence, the figures for UUACAGCAAUAUUACGGAUC were -4.12 ± 0.34 and -2.26 ± 0.2.
For UGGUAGCAAUAUUACGCACG, the “self-splicing fitness (ln)” value (30 °C) was -0.419 ± 0.17.
As to GGCCAGCAAUAUUACGACUC, the “self-splicing fitness (ln)” value by setting is: (30 °C) -1.21 ± 0.11; (37 °C) 0.0572 ± 0.13.
Consider CGCAAGCAAUAUUACGGAUU, for which the “self-splicing fitness (ln)” value was -4.84 ± 0.34 (30 °C) and -1.5 ± 0.19 (37 °C).
In the same order, the values of UCACAGCAAUAUUACGGCGC are -2.08 ± 0.1 and -1.02 ± 0.12.
Taken in the same sequence, the figures for CACGAGCAAUAUUACGCCCG were -1.88 ± 0.29 and -1.9 ± 0.28.
Taken in the same sequence, the figures for GGAGAGCAAUAUUACGUACU were -1.1 ± 0.12 and -1.16 ± 0.14.
As to AAGGAGCAAUAUUACGCAGU, the “self-splicing fitness (ln)” value reads like this: (30 °C) -3.65 ± 0.43; (37 °C) -1.38 ± 0.19.
In the same order, the values of AAGCAGCAAUAUUACGUAUA are -2.85 ± 0.19 and -2.69 ± 0.19.
For the sequence GUAAAGCAAUAUUACGUACA, the “self-splicing fitness (ln)” value (30 °C) is -0.0825 ± 0.078 and the “self-splicing fitness (ln)” value (37 °C) was determined as 0.111 ± 0.09.
Take GGAUAGCAAUAUUACGAAUG: the “self-splicing fitness (ln)” value (30 °C) is -2.73 ± 0.18 and the “self-splicing fitness (ln)” value (37 °C) was -1.87 ± 0.2.
With UAGAAGCAAUAUUACGAGUU, the “self-splicing fitness (ln)” value (37 °C) was -2.07 ± 0.33.
For the sequence UGGCAGCAAUAUUACGGGGA, the “self-splicing fitness (ln)” value runs as follows: (30 °C) -2.26 ± 0.13; (37 °C) -2.03 ± 0.14.
For the sequence GAGGAGCAAUAUUACGAAUG, under “37 °C”, the “self-splicing fitness (ln)” value was -1.7 ± 0.43.
As for GUACAGCAAUAUUACGUAGU, the “self-splicing fitness (ln)” value was -2.84 ± 0.11 (30 °C) and -2.08 ± 0.14 (37 °C).
Taken in the same sequence, the figures for UCAUAGCAAUAUUACGUCAU were -2.74 ± 0.29 and -3.16 ± 0.27.
Taken in the same sequence, the figures for CCAUAGCAAUAUUACGUAGG were -2.29 ± 0.078 and -1.37 ± 0.094.
In the same order, the values of CGCGAGCAAUAUUACGCUUU are -3.44 ± 0.33 and -0.916 ± 0.24.
As to AUGUAGCAAUAUUACGCCCA, the “self-splicing fitness (ln)” value (30 °C) is -0.905 ± 0.12 and the “self-splicing fitness (ln)” value (37 °C) was -0.148 ± 0.2.
Taken in the same sequence, the figures for AUUCAGCAAUAUUACGUGUG were -1.9 ± 0.062 and -0.699 ± 0.067.
In the same order, the values of ACAGAGCAAUAUUACGCCUU are -3.76 ± 0.42 and -1.9 ± 0.3.
In the same order, the values of ACUGAGCAAUAUUACGGCAC are -3.97 ± 0.37 and -2.6 ± 0.29.
On to UAAGAGCAAUAUUACGUACA, for which the “self-splicing fitness (ln)” value by setting is: (30 °C) -2.95 ± 0.37; (37 °C) -1.59 ± 0.4.
On to UUGGAGCAAUAUUACGUCUU, for which, where the note is “37 °C”, the “self-splicing fitness (ln)” value was -2.09 ± 0.5.
On to AAAGAGCAAUAUUACGAGCA, for which the “self-splicing fitness (ln)” value was -2.83 ± 0.39 (30 °C) and -2.26 ± 0.42 (37 °C).
Taken in the same sequence, the figures for UUACAGCAAUAUUACGCCAU were -2.91 ± 0.25 and -2.48 ± 0.27.
As to UUGCAGCAAUAUUACGUUCA, the “self-splicing fitness (ln)” value is -0.896 ± 0.12 (30 °C) and 0.241 ± 0.12 (37 °C).
In the same order, the values of CAAUAGCAAUAUUACGUGAC are -3.84 ± 0.25 and -2.21 ± 0.22.
Taken in the same sequence, the figures for AGUGAGCAAUAUUACGAGUC were -4.15 ± 0.47 and -1.93 ± 0.18.
As for CAGAAGCAAUAUUACGUGGU, the “self-splicing fitness (ln)” value is, setting by setting: (30 °C) -3.58 ± 0.17; (37 °C) -1.86 ± 0.16.
In the same order, the values of GGAGAGCAAUAUUACGUGAA are -0.689 ± 0.2 and -2.2 ± 0.4.
Taken in the same sequence, the figures for GAGCAGCAAUAUUACGCGCG were -1.25 ± 0.1 and 0.406 ± 0.12.
Taken in the same sequence, the figures for AGAUAGCAAUAUUACGACCU were 0.592 ± 0.11 and 0.469 ± 0.15.
As for CCCUAGCAAUAUUACGUUUG, the “self-splicing fitness (ln)” value is -3.93 ± 0.16 (30 °C) and -2.79 ± 0.18 (37 °C).
For the sequence GUCAAGCAAUAUUACGUGCU, the “self-splicing fitness (ln)” value reads like this: (30 °C) -3.07 ± 0.13; (37 °C) -2.7 ± 0.23.
Taken in the same sequence, the figures for GGCAAGCAAUAUUACGUAUC were -0.35 ± 0.063 and 0.0433 ± 0.083.
For AUCAAGCAAUAUUACGGUAG, the “self-splicing fitness (ln)” value (37 °C) is -2.53 ± 0.39.
Turning to CGCAAGCAAUAUUACGUGUG, the “self-splicing fitness (ln)” value is, setting by setting: (30 °C) -4.31 ± 0.14; (37 °C) -2.56 ± 0.11.
In the same order, the values of GGUUAGCAAUAUUACGACAG are -1.69 ± 0.2 and -0.85 ± 0.23.
On to GAACAGCAAUAUUACGAGCC, for which the “self-splicing fitness (ln)” value (30 °C) is -1.57 ± 0.14 and the “self-splicing fitness (ln)” value (37 °C) is -1.09 ± 0.22.
In the same order, the values of CCGCAGCAAUAUUACGUGAC are -4.7 ± 0.39 and -1.96 ± 0.26.
For GAGCAGCAAUAUUACGAGAG, the “self-splicing fitness (ln)” value (37 °C) is -2.19 ± 0.28.
Regarding GUAUAGCAAUAUUACGGUUU, the “self-splicing fitness (ln)” value reads like this: (30 °C) -0.844 ± 0.089; (37 °C) -1.29 ± 0.16.
Taken in the same sequence, the figures for GGCCAGCAAUAUUACGCUGG were -3.98 ± 0.27 and -2.27 ± 0.24.
In the same order, the values of CCACAGCAAUAUUACGUACA are -2.84 ± 0.19 and -2.96 ± 0.34.
In the same order, the values of ACAUAGCAAUAUUACGCGGG are -3.09 ± 0.12 and -1.64 ± 0.13.
Consider GAUUAGCAAUAUUACGGCAC, for which the “self-splicing fitness (ln)” value (30 °C) was -0.128 ± 0.13 and the “self-splicing fitness (ln)” value (37 °C) was -0.42 ± 0.12.
Taken in the same sequence, the figures for UCGAAGCAAUAUUACGGAAU were -3.57 ± 0.24 and -1.91 ± 0.23.
In the case of UAUUAGCAAUAUUACGCUAU, where the note is “37 °C”, the “self-splicing fitness (ln)” value was -2.14 ± 0.29.
With ACUUAGCAAUAUUACGUGGU, the “self-splicing fitness (ln)” value by setting is: (30 °C) -3.62 ± 0.21; (37 °C) -2.26 ± 0.17.
Consider CAGGAGCAAUAUUACGAACC, for which, under “37 °C”, the “self-splicing fitness (ln)” value was -1.07 ± 0.24.
In the case of AUUCAGCAAUAUUACGAUCU, the “self-splicing fitness (ln)” value was -0.272 ± 0.057 (30 °C) and 0.457 ± 0.078 (37 °C).
Regarding GAACAGCAAUAUUACGUAGA, the “self-splicing fitness (ln)” value is -0.427 ± 0.049 (30 °C) and -0.162 ± 0.069 (37 °C).
Taken in the same sequence, the figures for UACAAGCAAUAUUACGAACG were -0.239 ± 0.065 and -0.0708 ± 0.08.
Taken in the same sequence, the figures for UACGAGCAAUAUUACGCCAG were -3.79 ± 0.3 and -2.88 ± 0.3.
For the sequence GGAUAGCAAUAUUACGAGGU, the “self-splicing fitness (ln)” value is, setting by setting: (30 °C) -2.75 ± 0.29; (37 °C) -2.7 ± 0.18.
AUGAAGCAAUAUUACGGCCA: the “self-splicing fitness (ln)” value reads like this: (30 °C) 0.439 ± 0.11; (37 °C) 0.466 ± 0.18.
Taken in the same sequence, the figures for AUCCAGCAAUAUUACGUGAA were -0.631 ± 0.049 and -0.212 ± 0.072.
In the same order, the values of CUCAAGCAAUAUUACGUCUA are -3.15 ± 0.16 and -2.07 ± 0.14.
For the sequence CGUCAGCAAUAUUACGUCCA, the “self-splicing fitness (ln)” value reads like this: (30 °C) -1.97 ± 0.085; (37 °C) -1.36 ± 0.11.
Consider CCCGAGCAAUAUUACGCAAC, for which, where the note is “37 °C”, the “self-splicing fitness (ln)” value is -2.23 ± 0.34.
For CUUCAGCAAUAUUACGUUUC, the “self-splicing fitness (ln)” value is -2.93 ± 0.17 (30 °C) and -2.17 ± 0.2 (37 °C).
Consider AGUUAGCAAUAUUACGCAAA, for which the “self-splicing fitness (ln)” value (37 °C) is -1.57 ± 0.29.
On to GGAUAGCAAUAUUACGAUAA, for which the “self-splicing fitness (ln)” value is -1.51 ± 0.19 (30 °C) and -1.46 ± 0.2 (37 °C).
In the same order, the values of CACAAGCAAUAUUACGUUAC are -4.46 ± 0.34 and -3.12 ± 0.36.
In the same order, the values of GUUUAGCAAUAUUACGGACG are -1.76 ± 0.15 and -0.693 ± 0.15.
Consider CUUUAGCAAUAUUACGCAUA, for which, where the note is “30 °C”, the “self-splicing fitness (ln)” value is -3.68 ± 0.37.
In the case of GGAAAGCAAUAUUACGUUCA, the “self-splicing fitness (ln)” value (30 °C) was determined as 0.00884 ± 0.082 and the “self-splicing fitness (ln)” value (37 °C) was found to be 0.0862 ± 0.13.
Taken in the same sequence, the figures for GCCUAGCAAUAUUACGAAUU were -2.09 ± 0.12 and -0.976 ± 0.11.
In the same order, the values of UCAAAGCAAUAUUACGGUGC are -3.92 ± 0.42 and -1.94 ± 0.39.
GGACAGCAAUAUUACGAGCA: the “self-splicing fitness (ln)” value is -0.424 ± 0.47 (30 °C) and -0.637 ± 0.4 (37 °C).
